Assay in all cases: fluorescence polarisation
A general note: In fluorescence polarisation assays a small probe gives low polarisation when free and higher when bound to something large.

The target of assay [1] is fluorescein labelled AcrIIC4 (wild type, engineered C-terminal cysteine) (Haemophilus parainfluenzae (prophage)).
The target is the same in assay [2]. The source holds these as a separate data set.
For assay [3] the target is unchanged. This is another data set of the same source.
The target of assay [4] is fluorescein labelled AcrIIC4 F49A (Haemophilus parainfluenzae (prophage)).
The target in assay [5] is fluorescein labelled AcrIIC4 K56A (Haemophilus parainfluenzae (prophage)).
Assay [6] concerns the target fluorescein labelled AcrIIC4 R46A (Haemophilus parainfluenzae (prophage)).

Where two headings read alike, the source gives them in different places.

B1: Nme1Cas9 (N-terminal 6His-tag) (natural protein)
chain: MAAFKPNSINYILGLDIGIASVGWAMVEIDEEENPIRLIDLGVRVFERAEVPKTGDSLAMARRLARSVRRLTRRRAHRLLRTRRLLKREGVLQAANFDENGLIKSLPNTPWQLRAAALDRKLTPLEWSAVLLHLIKHRGYLSQRKNEGETADKELGALLKGVAGNAHALQTGDFRTPAELALNKFEKESGHIRNQRSDYSHTFSRKDLQAELILLFEKQKEFGNPHVSGGLKEGIETLLMTQRPALSGDAVQKMLGHCTFEPAEPKAAKNTYTAERFIWLTKLNNLRILEQGSERPLTDTERATLMDEPYRKSKLTYAQARKLLGLEDTAFFKGLRYGKDNAEASTLMEMKAYHAISRALEKEGLKDKKSPLNLSPELQDEIGTAFSLFKTDEDITGRLKDRIQPEILEALLKHISFDKFVQISLKALRRIVPLMEQGKRYDEACAEIYGDHYGKKNTEEKIYLPPIPADEIRNPVVLRALSQARKVINGVVRRYGSPARIHIETAREVGKSFKDRKEIEKRQEENRKDREKAAAKFREYFPNFVGEPKSKDILKLRLYEQQHGKCLYSGKEINLGRLNEKGYVEIDHALPFSRTWDDSFNNKVLVLGSENQNKGNQTPYEYFNGKDNSREWQEFKARVETSRFPRSKKQRILLQKFDEDGFKERNLNDTRYVNRFLCQFVADRMRLTGKGKKRVFASNGQITNLLRGFWGLRKVRAENDRHHALDAVVVACSTVAMQQKITRFVRYKEMNAFDGKTIDKETGEVLHQKTHFPQPWEFFAQEVMIRVFGKPDGKPEFEEADTLEKLRTLLAEKLSSRPEAVHEYVTPLFVSRAPNRKMSGQGHMETVKSAKRLDEGVSVLRVPLTQLKLKDLEKMVNREREPKLYEALKARLEAHKDDPAKAFAEPFYKYDKAGNRTQQVKAVRVEQVQKTGVWVRNHNGIADNATMVRVDVFEKGDKYYLVPIYSWQVAKGILPDRAVVQGKDEEDWQLIDDSFNFKFSLHPNDLVEVITKKARMFGYFASCHRGTGNINIRIHDLDHKIGKNGILEGIGVKTALSFQKYQIDELGKEIRPCRLKKRPPVR
Take B1: the Kd is 7.1 nM in assay [1]; 10.2 nM in assay [2]; 6.6 nM in assay [3]; 15.3 nM in assay [4]; 1.4 nM in assay [5]; over 2500 nM in assay [6].

Usually Kd stands for the free concentration of one partner at which half of the binding sites on the other are occupied at equilibrium, for simple one-to-one binding. Lower therefore signals tighter binding.
